B1: TPR t1 (parent)
chain: GACCAAUCUGCCCUCAGAGCUCGAGAACAUCUUCGGAUGCAGAGGAGGCAGGCUUCGGUGGCGCGAUAGCGCCAACGUCCUCAACCUCCAAUGCAUCCCACCACAUGAUGAUGCCUGAAGAGCCUUGGUUUUUUG

Variants of: B1
Assay: polymerase ribozyme fitness, log enrichment relative to wild type (log ratio); higher = more active; in vitro selection for triplet polymerase activity
Method in brief: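 A single round of triplicate in vitro selection, including frozen incubation at −7 °C, was applied to PCR-built, transcribed mutant libraries of each subunit of a heterodimeric triplet polymerase ribozyme. Illumina sequencing of input and output libraries retained genotypes with ≥10 input reads and ≥1 read per output. Fitness is the base-2 logarithm of genotype enrichment divided by wild-type enrichment, from inverse-variance-weighted replicate averages.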

First: GUCCAAUCUGCCCUCAGAGCUCGAGAACAUCUUCGGUUGCACAGGAGGCAGGCUUCGGUGGCGCGAUAGCGCCAACGUCCUCAACCUCCAAUCCAUCCCACCACAUGAUGAUGCCUGAAAAGGCUUGGUAUUUUG
Second: GUGCAAUCUGCCCUCAGAGCUCGAGAACAUCUUCGGAUGCAGAGGAGGCAGGCUUCGGUGGCGCGAUAGCGCCAACGUACUCAACCUCCAAUGCAUCCCACCACAUGAUGAUACCUGAAGAGCGUUGGUUUUUUG
The “polymerase ribozyme fitness (log ratio)” value of the first is lower: -6.65 for the first, -4.18 for the second.

First: GUCCAAUCUGGCCUCAGAGCUCGAGAACAUCUUCGGAUGCAGAGGAGCCAGGCUUCGGUGGCGCGAUAGCGCCAACGUCCUCAACCUCCAAUGCAUCCCACCACAUGAUGAUGCCUGAAUAGCCUUGCUUUUUUG
Second: GUCCAAUCUGCCCUCAGAGCUCGAGAACAUCUUCGGAUGCAGAGGAGGCCGGCUUUUGUGGCGCGAUAGCGCCAACGUCCUCAACCUCCAUUGCAUCCCACCACAUGAUGAUGCCUGAAGAGCGUUCCUUUUUUG
The “polymerase ribozyme fitness (log ratio)” value of the first is higher: -0.718 for the first, -4.54 for the second.

Going from GUCAAAUCUGCCUUCAGAGCUCGAGAACAUCUUCGGAUGCAGAGGAGGCAGGCUUCGGUGGCGCGAUAGCGCCAACGUCCUCAACCUCCAAUGCAUCCCACCACAUGAUGAUGCCUGAAGAGACUUGGUUUUUUG to GUCCAAUCUGCCCUCAGAGCUCGAGAACAUCUUCGGAUGCAGAGGAGGCAGGCUUCGGUGGCGCGAUAGCGCCAACGUCCUCAACCUCCAAUGCAUCCCUCCACAUGAUGAUGCCCGAAGAGCCUUGGUUUUUUG, the “polymerase ribozyme fitness (log ratio)” value falls from 1.02 to -3.73.

Compared with GUCCAAUCUGCCCUCAGAGCUCGAGAACAUCUUCGGAUGCAGAGGAGGCCGGCUUUUGUGGUGCGAUAGCGCCAACGUCCUCAACCUCCAUUGCAUCCCACCACAUGAUGAUGCCUGAAGAGCGUUCCUUUUUUG, GUCCAAUCUGUCCUCAGAGCUCGAGAACAUCUUCGGAUGCAGAGGAGGCAGGCUUCGGUGGCGCGAUAACGCCAACGUCCUCAACCUCCAAUGCAUCCCACCACAUGAUGAUGCCUGAAGAGCCUUGGUUUUUUG is higher in “polymerase ribozyme fitness (log ratio)” value: -4.5 for the first, -4.07 for the second.

Compared with GUCCAAUCUGCCCUCAGAGCUCGAGAACAUCUUCGGAUGCGGAGGAGGCAGGCUACGGUGGCGCGAUAGCGACAACGUCCUCAACCUCCAAUGCAUCCCACCACAUGAUGAUGCCUGAAGAGCCUUGGUUUUUUG, GUCCAAUCUGUCCUCAGAGCUCGAGAACAUCUUCGGAUGCAGAGGAGGCAGGCUUCGGUGGCUCGAUAGCGCCAACGUCCUCAACCUCCAAUGCAUCCCAGCACAUGAUGAUUCUUGAAGAGCCUUGGUUUUUUG is lower in “polymerase ribozyme fitness (log ratio)” value: -2.61 for the first, -6.67 for the second.

Going from GUCUAAUCUGCCCUCAGAGCUCGAGAACAUCUUCGGAUCCAGAUGAGGCAGGCUUCGGUGACGCGAUAGCGCCAACGUCCUCGACCUCUAAUGCAUCCCACCACAUGAUGAUGCCUGAAGUGCCUUGGUUUUUUG to GUCCAAUGUGCCCUUAGAGCUCGAGAACAUCUUCGGAUGCAGAGGAGGCAGGCUUCGGUGGCGUGAUAGCGCCAACGUCCUCAACCUCCAAUGCAUCCCACCACAUGAUGAUGCCUGAAGAGCCUUGGUUUUUUG, the “polymerase ribozyme fitness (log ratio)” value rises from -2.89 to -2.18.

Going from GUCCAAUUUGGCCUCAGAGCUCGAGAACAUCUUCGGAUGCAGAGGAGGCAGGCUUCGGUGGCGCGAUAGCGCCAACGUCCUCAACCUCCAAUGCAUCCCACCACAUGAUGAUGCCUGAAGAGCCUUGGUUUUUUG to GUCCAAUCUGCCCUCAGAGCUCGAGAACAUCUUCGGAUGCAGAGGAGGCUGGCUUCGGUGGCGCGAUAGCGCCAACGUCCUCAACCUCCAAUGCCUCCCACCACAUGAUGAUGCCUGAAGAGCAAUGGUUUUUUG, the “polymerase ribozyme fitness (log ratio)” value falls from -0.458 to -2.49.

GUCCAAUCUGUCCUCAGAGCUCGAGAACAUCUUCGGAUGCAGAGGAGGCAGGCUUCGGUGGCGCGAUAGCGCCAACGUCCUCAACCUCCAAUGCAUCCCACCACAUGAUGAUGCCUGAAGAGCCUUGGUUUUUUG and GUCCAAUCUGCCCUCAGAGCUCGAGAGCAUCUUCGGAUGCAGAGGAGGCAGGCUUCGGUGACGCGAUAGCGCCAACGUCCUCAACCUCCAAUGCAUCCCACCAAAUGAUGACGCCUGAAGAUCCUUGGUUUUUUG are within 0.2 log units of each other in “polymerase ribozyme fitness (log ratio)” value: -2.95 for the first, -2.93 for the second.

Going from GUCCAAUCUGCCCUCAGAGCUCGAGAUCAUCUUCGGAUGCAGAGGAGGCAGGCUUCGGUGGCGCGAUAGCGCCCACGUCCUCAACCACCAAUGCAUCCCACCACAUGAUGAAGCCUGAAGAGCCUUUGUUUUUUG to GUCCAAUCUGCCCUCAGAGCUCGAGAACAUCUUCGGAUGCAGAGGAGGCAGGCUUCGGUGGCGCGAUAGCGCCAACGUCCUCAACCUCCAAUGCAUCCCUCCACAUGAUGAUGCCUGAAGAGCCUUGGUUUUUUG, the “polymerase ribozyme fitness (log ratio)” value falls from -2.94 to -3.18.

First: GUCCAAUCUGCCCUCUGAGCUCGAGAACAUCUUCGGAUGCAGAGAAGGCAGGCUUCGGUGGCGCGAUAGCGCCAACGUCCUCAACCCCCAAUGCAUCCCACCACAUGAUGAUGCCUGAAGCGCCUUGGUUUUUUG
Second: GUCCAAUCUGCACUCAGAACUCGAGAACAGCUUCGGAUGCAGAGGAGGCAGGCUUAGGUGGCGCGAUAGCGCCAACGUCCUCAACCUCCAAUGCAUCCCACCACAUGAUGAAGGCUGAAGAGCCUUGGUUUUUUG
The “polymerase ribozyme fitness (log ratio)” value of the first is higher: -2.88 for the first, -7.24 for the second.

With GUCCAAUCUGCCCUCAGUGCUCGAGAACUUCUUCGGAUGCUGAGGAGGCAGGCUUCGGUAGCGCGAUAGCGCCAACGUCCUCAACCUCCAAUGCAUCCCACCACAUGAUGAUGCCUGAAGAGCCUUGGUUUUUUG the “polymerase ribozyme fitness (log ratio)” value was -5.23.
